Literature values as cited in paper PMC10339233.

Molecular target: thrombomodulin EGF-like domains 4-6 (Homo sapiens) (UniProt P07204)
Assay: SPR

Kd: 4 nM
Substance: thrombin (from UniProt P00734)
